In data set [1] the target is T1, Peptide of SEQ ID NO:7 (CPAF inhibitory segment plus nine C-terminal arginines) (not fully specified).
T1 chain: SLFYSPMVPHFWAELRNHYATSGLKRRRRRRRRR

Data set [2] deals with T2, Abz-tagged model CPAF substrate Abz-V-R-L-R-S-S-V-P-G-V-NH2 (SEQ ID NO:9), derived from human vimentin.
T2 chain: VRLRSSVPGV

Data set [3] concerns the target Endogenous Tarp from EB lysates.
Data set [4] has as its target Endogenous Ct694 from EB lysates.
For data set [5], the target named is Recombinant CdsQ, type-III secretion (T3S) core component.
The target of data set [6] is T3, Sequence-scrambled control peptide H-NFALSHFRLPLSTYKEMPYVSHWAGRRRRRRRRR-NH2 (SEQ ID NO:11).
T3 chain: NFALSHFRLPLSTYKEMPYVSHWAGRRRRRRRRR

Data set [7] concerns the target Recombinant Mcsc, T3S chaperone.
In data set [8] the target is Recombinant Ct584, T3S needle component.
The target in data set [9] is Endogenous Ct288 from EB lysates.
In data set [10] the target is T4, Recombinant Chlamydial Protease-like Activity Factor (CPAF), his-tagged, expressed in E. coli BL21 (DE3) from … (C. trachomatis, UniProt O84866 17-234; O84866 276-601).
T4 sequence 1: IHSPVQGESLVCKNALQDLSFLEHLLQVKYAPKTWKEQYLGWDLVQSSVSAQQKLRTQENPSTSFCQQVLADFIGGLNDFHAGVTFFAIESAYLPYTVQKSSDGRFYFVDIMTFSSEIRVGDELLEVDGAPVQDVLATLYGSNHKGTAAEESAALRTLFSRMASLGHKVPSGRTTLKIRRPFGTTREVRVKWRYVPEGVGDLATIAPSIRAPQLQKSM
T4 sequence 2: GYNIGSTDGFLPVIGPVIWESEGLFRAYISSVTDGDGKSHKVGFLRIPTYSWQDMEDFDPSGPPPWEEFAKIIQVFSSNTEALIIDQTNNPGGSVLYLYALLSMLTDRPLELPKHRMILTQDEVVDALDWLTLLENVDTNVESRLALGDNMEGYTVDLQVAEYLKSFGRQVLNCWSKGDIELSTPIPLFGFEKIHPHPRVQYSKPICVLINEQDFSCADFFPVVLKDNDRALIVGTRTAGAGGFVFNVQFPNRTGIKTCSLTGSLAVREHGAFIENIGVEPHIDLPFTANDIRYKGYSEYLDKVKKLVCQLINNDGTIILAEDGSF
The experiment in a line: cell-based or functional assay.

Where no end group is shown, it is not given here.

B1: Recombinant Chlamydial Protease-like Activity Factor (CPAF), his-tagged, expressed in E. coli BL21 (DE3) from pET30b-CPAF (protein)
chain 1: T4 sequence 1
chain 2: T4 sequence 2
Regarding B1, the “CPAF cleavage of GST-chlamydial substrates in vitro (SDS-PAGE, FIG. 8E)” value in [1] is “broadly inhibited degradation of CPAF substrates in vitro and in vivo”; in data set [6], “but not a scrambled sequence of equal molecular weight (SEQ ID NO:11)”. In addition, in data set [2], the “KM of CPAF proteolysis of the model substrate (HPLC-based assay)” value is “KM=0.88 mM”. Moreover, in data set [2], the “kcat of CPAF proteolysis of the model substrate (HPLC-based assay)” value is “kcat=13.2 5^-1”. Besides, the “kcat/KM of CPAF proteolysis of the model substrate (HPLC-based assay)” value in data set [2] is “kcat/KM=1.5×10^4 M^-1s^-1”. Moreover, the “incubation of EB lysates with recombinant CPAF, immunoblot (FIG. 7)” value is “specifically degraded” in data set [3]; “specifically degraded” in data set [4]; “Ct694, TARP and Ct288 were cleaved” in data set [9]. Besides, the “incubation with recombinant CPAF, immunoblot (FIG. 5B)” value in data set [5], in [7] and in data set [8] was “Recombinant CPAF does not cleave chlamydial proteins that are resistant to processing by cytosols form infected HeLa cells” throughout.
With SLFYSPMVPHFWAELRNHYATSGLK (not fully specified (C-terminus)) [Peptide of SEQ ID NO:2 (CPAF inhibitory segment, SLFYSPMVPHFWAELRNHYATSGLK)], in data set [10], the “IC50, inhibition of CPAF cleavage of the Abz-tagged model substrate SEQ ID NO:9 (HPLC-based assay, 62.5 nM CPAF, 0.5 mM substrate)” value came out at 1600 nM.
Take SLFYSPMVPHFWAELRNHYATSGLKRRRRRRRRR (not fully specified (C-terminus)) [Peptide of SEQ ID NO:7 (CPAF inhibitory segment plus nine C-terminal arginines)]: in data set [10], the “IC50, inhibition of CPAF cleavage of the Abz-tagged model substrate SEQ ID NO:9 (HPLC-based assay, 62.5 nM CPAF, 0.5 mM substrate)” value came to 50 nM; the “IC50, inhibition of CPAF cleavage of the Abz/3-nitrotyrosine model substrate SEQ ID NO:10 (FRET-based assay, 62.5 nM CPAF)” value was 30 nM; the “fold greater inhibition than SEQ ID NO:2 (HPLC-based assay)” value is about 30 fold; the “fold greater inhibition than lactacystin (HPLC-based assay)” value was about 200 fold.

Values taken from US20120263745A1 (DUKE UNIVERSITY, published 2012).
